Source: the supplement of paper PMC12764529
± gives the half width of the 95% confidence interval.

Columns and labels:
[1] = folding stability dG unfold from chymotrypsin proteolysis; higher = more stable
Summary of the method: (§1)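 Unfolding free energy was derived, per protease or combined, by relating Bayesian-fitted K50 values from sequencing counts to a sequence-predicted unfolded-state K50 and a shared folded-state K50. The underlying digests exposed cysteine-free mini-proteins under 80 residues, in a PA-tagged cDNA display construct, to trypsin and chymotrypsin at 11 threefold-diluted concentrations and to a no-protease condition. A filter kept only designs with AlphaFold2 dimer inter-PAE above 15.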

[2] = folding stability dG unfold from trypsin proteolysis; higher = more stable
Summary of the method: as §1

[3] = folding stability dG unfold (combined trypsin and chymotrypsin); higher = more stable
Summary of the method: as §1

Sequence | folding stability dG unfold [1] | folding stability dG unfold [2] | folding stability dG unfold [3]
SAGGSAGGNTITVFMPYSQARELAEELRDEGITVDIQPYPDWMFITVEIKVPKIDPEDNPDNKDSAGGSAGG [r6_392_TrROS] | 1.3 ± 0.074 kcal/mol | 1.43 ± 0.047 kcal/mol | 1.35 ± 0.089 kcal/mol
SAGGSIELPLEEGSTAEVELELRVPFYRLDANGRPVAPEERTLRIRARFTRLPDGRVLVEVEVEVESAGGSA [r2_154_TrMRF] | 5.24 ± 0.1 kcal/mol | 4.46 ± 0.17 kcal/mol | 4.98 ± 0.13 kcal/mol
ENYVAIEITMEMPNPDGMEMKFDLKIIKLDPDDGKFAIEMSMEMENPNGKPYRHPMWFVIPADELKEFLEAS [r1_371_TrROS] | 4.12 ± 0.12 kcal/mol | 2.56 ± 0.22 kcal/mol | 3.54 ± 0.28 kcal/mol
SAGGPMPLDDIEIHNVWPYKGEYWMVMITVPNNGKEIMIPWDDLDELLENDPNVEVDVMPIKPGQPMSAGGS [r16_61_TrROS] | 1.21 ± 0.061 kcal/mol | 1.12 ± 0.04 kcal/mol | 1.25 ± 0.083 kcal/mol
SAGGGFSVSTGTLTDPVTGKPITLTVTNLPDGVSRVTVTLEDGKTFEFTFPANNPPTPEQVAEAVKAFSAGG [r13_492_TrMRF] | 3.631 ± 0.024 kcal/mol | 3.64 ± 0.078 kcal/mol | 3.64 ± 0.04 kcal/mol
SAGGALILLFPHPESRTVTALFVHPDGGSETIPFPVPESIDSLEEVADRLLREARERFPVPVEVVVASAGGS [r8_166_TrMRF] | 1.37 ± 0.033 kcal/mol | 0.944 ± 0.012 kcal/mol | 1.2 ± 0.038 kcal/mol
SAGGSAGGSAGMKTSVTTPVTLPDGTPAVVTKYDGEVEIIDTGDGTSKVVPLSEVPPKLLSAGGSAGGSAGG [r11_155_JUSTAS] | 0.422 ± 0.076 kcal/mol | 0.678 ± 0.035 kcal/mol | 0.604 ± 0.07 kcal/mol
SKLPPGQPYRRVEMTITFDFKSPKELRKKIRELFGKIEVDMKHNPEDNWYTIDIWFPSPAVMDELKELIFSA [r9_764_TrROS] | 3.29 ± 0.061 kcal/mol | 3.06 ± 0.17 kcal/mol | 3.07 ± 0.23 kcal/mol
SAGGSAGGSAGGNFKITEPVEEYPNPNGNPIKVFTFKNPDDGPEFTFIFMPNGNWQFIPSAGGSAGGSAGGS [r10_1123_TrROS] | 0.797 ± 0.14 kcal/mol | 0.674 ± 0.09 kcal/mol | 0.77 ± 0.12 kcal/mol
SAGKETVKLVVVNKETNKVVEVTFNKDGEIVSVKVFEVKPAPPPPPVELSEEQLVKTKDGKWRSLEELKSAG [r5_685_TrROS_Hall] | 1.19 ± 0.075 kcal/mol | -0.369 ± 0.13 kcal/mol | 0.829 ± 0.11 kcal/mol
SAGGSAGGSAGGLKPGQKVAVFVKVKVKLYRDPATNELTEEVEIEDVFVVDAETKELLLSAGGSAGGSAGGS [r10_248_TrROS_Hall] | 2.64 ± 0.071 kcal/mol | 1.98 ± 0.13 kcal/mol | 2.45 ± 0.12 kcal/mol
SAGGSKKVDIKPGKVKKVEVKTLPNGKKLLVLYFPLEDGKEKVVVISSDFKTPEEALEAAYKQLGKSAGGSA [r2_347_TrMRF] | 1.21 ± 0.066 kcal/mol | 1.02 ± 0.049 kcal/mol | 1.23 ± 0.21 kcal/mol
SAGGSAPGEPIFIRWKIEHPNGNPWTIPFPIKTEEQALEQAIRFAESIAKKLGNPNVKIKIDEIIPSAGGSA [r15_698_TrROS] | 0.575 ± 0.44 kcal/mol | 1.11 ± 0.12 kcal/mol | 0.914 ± 0.21 kcal/mol
SAGGKKKLTLEIKIKVPKEEEEKAKEKAKKLAEELAKKLKEAGYKVKVTVEIDEETGEITVKVEVELPSAGG [r13_755_TrROS_Hall] | 3.54 ± 0.55 kcal/mol | 2.84 ± 0.34 kcal/mol | 3.43 ± 0.49 kcal/mol
SAGGSAKTKVIEIEIDLSPEEIEELAKKLKEEGKVEEVKVEYDEKTGKVKVTVVVRDKNGEWKKLSSAGGSA [r15_177_TrROS_Hall] | -0.0755 ± 0.48 kcal/mol | 0.854 ± 0.066 kcal/mol | 0.556 ± 0.15 kcal/mol
SGFKVYIPDADLDAAVAVAKALVEKGYDTLLVDSPEVLKAIKEAIPDVKVEPVPVLPPVPPLPGEAEALFSA [r9_639_TrMRF] | 0.573 ± 0.092 kcal/mol | 0.71 ± 0.021 kcal/mol | 0.684 ± 0.076 kcal/mol
SAGGSAGGSAGNMEVIEEVEFTFPGLGVKISVSIFKTDGGIVIMIDIEIPMPPEDRKKFKSAGGSAGGSAGG [r17_431_TrROS] | 1.61 ± 0.18 kcal/mol | 0.857 ± 0.097 kcal/mol | 1.25 ± 0.15 kcal/mol
SASSVEKEFDSIEDALKAIKEALAKKVPVKMKMDPETVKELKKAGFPDIDVTKEKLPNGNEYYLLELLFSAG [r14_127_JUSTAS] | 1.2 ± 0.051 kcal/mol | 1.06 ± 0.019 kcal/mol | 1.15 ± 0.058 kcal/mol
SAGMITLPTRGPEELIERLRAIAEELGLSEEDIEQFLRDLAEHATIEQDGDLLLITFQPPVPALPGEPESAG [r5_717_TrMRF] | 1.91 ± 0.037 kcal/mol | 1.23 ± 0.071 kcal/mol | 1.74 ± 0.17 kcal/mol
SASVTTLTFTVTYPGGETETFTVTVPNLTEEEAKALAEKLAEEIQEKSKKPGVKVEVSITRYPADDPALSAG [r14_207_JUSTAS] | 4.13 ± 0.21 kcal/mol | 3.9 ± 0.17 kcal/mol | 4.2 ± 0.18 kcal/mol
SAGGSAGGSAGDEWITIWFLFPSPEQAKDIADPLASNGLNIDVETHRMPDGNYWVNITIPSAGGSAGGSAGG [r11_677_TrROS] | 3.34 ± 0.089 kcal/mol | 2.21 ± 0.092 kcal/mol | 2.9 ± 0.11 kcal/mol

Sequence | folding stability dG unfold [1] | folding stability dG unfold [2] | folding stability dG unfold [3]
SAPLDPDQAKEQAENIADYFQDEMQDQFGMDPSDIDVDVKVEQEPNGHYRITVEITMGNMPIEMEIYVPSAG [r14_226_TrROS] | 2.1 ± 0.049 kcal/mol | 1.45 ± 0.11 kcal/mol | 1.8 ± 0.12 kcal/mol
SAGGSAGGSAGGSKLPEGAKITITKNEDGSYTLTVTFPNGEKVEITMSEDELKKLLEALSAGGSAGGSAGGS [r4_16_TrROS_Hall] | 3.64 ± 0.11 kcal/mol | 3.84 ± 0.15 kcal/mol | 3.79 ± 0.14 kcal/mol
SAGMVIKVKVKNKDGEELELVIEIPEEELPEELTEEELKELAKKLAEELAKEGKVEVVEVEIVEPEELSAGG [r19_27_TrROS_Hall] | 1.8 ± 0.13 kcal/mol | 2.39 ± 0.26 kcal/mol | 2.03 ± 0.25 kcal/mol
SAGWYIKVEVYYGGKKHTFMIPRKQAKELRKKYPPGDEIPIPFNGRDVEIRVQVIPPPPPSPEDAADNKSAG [r5_669_TrROS] | 2.75 ± 0.12 kcal/mol | 1.83 ± 0.047 kcal/mol | 2.44 ± 0.17 kcal/mol
SAGGSAMPDDPLVLRANIPFVVVGPDGRPRLFRREILVPFASEEEAERFRRELEALGAEVEPVARASAGGSA [r15_117_TrMRF] | 2.17 ± 0.13 kcal/mol | 1.62 ± 0.051 kcal/mol | 1.93 ± 0.12 kcal/mol
SAGGSAGGSAGGLKDALENGYVMIDFEIYNPPNGEPIGEITIMVKVPKPEPDEDGNWQLVSAGGSAGGSAGG [r7_959_TrROS] | 0.941 ± 0.06 kcal/mol | 1.34 ± 0.086 kcal/mol | 1.26 ± 0.16 kcal/mol
SAGGKPGEKPRIRIQVKVRYPGNGRKQSITIEIVPDAIEQGLSASELADEIARKMGMPVKIEEIEILSAGGS [r16_554_TrROS] | 1.692 ± 0.013 kcal/mol | 1.873 ± 0.015 kcal/mol | 1.79 ± 0.04 kcal/mol
SAGGSAGGSGLPIVVQEDGTLVLRREGDGTAAFDVVPLEEFERLPEEFLESLPASALPDPLPLSAGGSAGGS [r12_793_JUSTAS] | 1.41 ± 0.11 kcal/mol | -0.428 ± 0.2 kcal/mol | 0.882 ± 0.1 kcal/mol
SAGGSAGGSKGPMITITLFILVRPDDGKYYATVIEMYIYPNGGIDIEMEMIPADDIPPGDIVISAGGSAGGS [r12_38_TrROS] | 4.74 ± 0.15 kcal/mol | 2.94 ± 0.17 kcal/mol | 4.55 ± 0.22 kcal/mol
SAGGMKIEIVEIEREGNTITIKAKITLPDGTVIEITAKAEFVDGELKLEIKVEVRKLPPPPPPPPEESAGGS [r8_458_TrROS_Hall] | 2.73 ± 0.39 kcal/mol | 2.87 ± 0.27 kcal/mol | 2.55 ± 0.53 kcal/mol
SAGGMKYLVTITITDPDTGQERVIEVEFPDMTPEEIKEAAEELAEEIASEQGLNLKVEVEVTPIPLLSAGGS [r8_185_JUSTAS] | 3.34 ± 0.077 kcal/mol | 3.95 ± 0.11 kcal/mol | 3.55 ± 0.068 kcal/mol
SMTITIVVEAPPEEAKEKAEELEKELKEKLDKLREEAKKKGLSEEEIEEELKIKIKVVVVSKEDLEKLKPSA [r9_961_TrROS_Hall] | -0.317 ± 0.11 kcal/mol | 0.989 ± 0.082 kcal/mol | 0.431 ± 0.13 kcal/mol
SAGGSAMTITIKIENEDVTIPSSKSKEEILKAIKENPDVPVTVTLPDGTPVTLSPEELEKLIKEEKSAGGSA [r15_36_JUSTAS] | 1.23 ± 0.022 kcal/mol | 1.02 ± 0.032 kcal/mol | 1.11 ± 0.11 kcal/mol
SAGAKVEIEFEGNKVTAKIEFGEGTVTVEGEVKLLPDGSALFKPKIYKDGKKIGEFTVLLDLPEGAEVLSAG [r5_221_TrMRF] | 1.95 ± 0.057 kcal/mol | 1.37 ± 0.062 kcal/mol | 1.84 ± 0.16 kcal/mol
SAGGSAIKLPSGVKIEFKKTEDGKYIVRVTLPDGKPIELEFEGDPEGPNNITPEEINDAILEKIKSSAGGSA [r15_780_TrMRF] | 3.23 ± 0.056 kcal/mol | 2.67 ± 0.11 kcal/mol | 3.06 ± 0.081 kcal/mol
SAGGKYEYDPDNGYYRDEDGKMYYPMPPQIPPIEIPIPINLPNGQKLNIPVEFRTIEDALDALKKFFSAGGS [r8_440_TrROS] | 1.13 ± 0.091 kcal/mol | 0.697 ± 0.033 kcal/mol | 1.01 ± 0.14 kcal/mol
MDDVVRVVLPVRVRIRDPVAPDRPEREVEILLERDVPLDEESLEELLEEAERAAEELARALGGEEAEVEPVS [r1_300_TrMRF] | 1.54 ± 0.024 kcal/mol | 0.135 ± 0.09 kcal/mol | 1.15 ± 0.089 kcal/mol
SAGGSAGGSAGEVTVPAVVPPDAVPEVVEAVERLGARAEVEWDPETGLYRVNITFDGEVGSAGGSAGGSAGG [r11_1043_TrMRF] | 0.901 ± 0.06 kcal/mol | -0.00326 ± 0.067 kcal/mol | 0.604 ± 0.07 kcal/mol
SAGGSAGGIKAPDGQEYHIILFPITIPMEQKVERPMPDGDPRPETRTVSIKIPIWFAIPPGQKISAGGSAGG [r6_526_TrROS] | 1.5 ± 0.12 kcal/mol | 1.14 ± 0.029 kcal/mol | 1.29 ± 0.13 kcal/mol
SAGGVPVPPEVEYPISPEAVELAEKLAPELGAKNFKVTVVSVEPGYITVEITLPDTGKTVTVTIPLGSAGGS [r16_281_JUSTAS] | 1.987 ± 0.015 kcal/mol | 1.5 ± 0.041 kcal/mol | 1.82 ± 0.053 kcal/mol
SAGGKNVKKYVPIEIEIEAPSPEVAEATAEEIEKIIREKFPGAKVEVEMEPLPDGGYKLKVKVYVPVGSAGG [r13_17_TrMRF] | 3.47 ± 0.059 kcal/mol | 1.82 ± 0.059 kcal/mol | 3.11 ± 0.07 kcal/mol
